Data published in patent US20240132589A1.

How the values were obtained:
[1] = molecular target: Human LILRB2 on stably transduced HEK293T cells (human) (UniProt Q8N423); test: flow cytometry competition on HEK293T-LILRB2 cells; blocking mAb 1 µg/mL; competitor: biotinylated B2Comp2
[2] = molecular target: Human LILRB2 on stably transduced HEK293T cells (human) (UniProt Q8N423); test: flow cytometry competition on HEK293T-LILRB2 cells; blocking mAb 0.1 µg/mL; competitor: biotinylated B2Comp2
[3] = molecular target: Human LILRB2 on stably transduced HEK293T cells (human) (UniProt Q8N423); test: flow cytometry competition on HEK293T-LILRB2 cells; blocking mAb 1 µg/mL; competitor: biotinylated B2Comp1
[4] = molecular target: Human LILRB2 on stably transduced HEK293T cells (human) (UniProt Q8N423); test: flow cytometry competition on HEK293T-LILRB2 cells; blocking mAb 0.1 µg/mL; competitor: biotinylated B2Comp1
[5] = molecular target: Human LILRB2 on stably transduced HEK293T cells (human) (UniProt Q8N423); test: flow cytometry competition on HEK293T-LILRB2 cells; blocking mAb 10 µg/mL; competitor: biotinylated B2Comp2
[6] = molecular target: Human LILRB2 on stably transduced HEK293T cells (human) (UniProt Q8N423); test: flow cytometry competition on HEK293T-LILRB2 cells; blocking mAb 10 µg/mL; competitor: biotinylated B2Comp1

Human LILRB2 on stably transduced HEK293T cells (human), sequence (Q8N423 other isoform, or with tags, fused parts or gaps limits assumed): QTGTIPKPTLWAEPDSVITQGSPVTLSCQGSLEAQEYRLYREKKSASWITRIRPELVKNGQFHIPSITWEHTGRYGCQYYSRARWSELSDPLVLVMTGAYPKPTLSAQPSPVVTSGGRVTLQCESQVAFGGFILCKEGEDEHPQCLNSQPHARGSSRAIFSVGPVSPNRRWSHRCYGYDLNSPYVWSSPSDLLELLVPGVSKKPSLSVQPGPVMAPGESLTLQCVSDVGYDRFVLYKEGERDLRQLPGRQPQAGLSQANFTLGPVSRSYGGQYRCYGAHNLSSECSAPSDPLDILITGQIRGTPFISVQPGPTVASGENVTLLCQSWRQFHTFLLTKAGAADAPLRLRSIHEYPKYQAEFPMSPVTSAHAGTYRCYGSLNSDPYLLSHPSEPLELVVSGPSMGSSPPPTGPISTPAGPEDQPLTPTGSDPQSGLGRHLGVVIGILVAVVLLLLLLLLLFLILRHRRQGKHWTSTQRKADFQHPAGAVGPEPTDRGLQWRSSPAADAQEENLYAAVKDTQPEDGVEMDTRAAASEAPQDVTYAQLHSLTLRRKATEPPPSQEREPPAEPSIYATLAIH

- % Blocking of B2Comp2 Binding [1]: 0%
- % Blocking of B2Comp2 Binding [2]: 0%
- % Blocking of B2Comp1 Binding [3]: 0%
- % Blocking of B2Comp1 Binding [4]: 0%
- % Blocking of B2Comp2 Binding [5]: 0%
- % Blocking of B2Comp1 Binding [6]: 0%
Substance: hIgG4 isotype control (antibody)
